Data from the nanobody polyreactivity screen of Harvey et al. (2022).

Assay: yeast display, Sf9 membrane polyspecificity reagent, FACS + sequencing; frameworks hold sequencing errors
How it was run: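 A synthetic nanobody library was expressed on Saccharomyces cerevisiae BJ5465 by galactose induction for 36–48 hours. The library was stained for 1 hour at 4 °C with 10% biotinylated, detergent-solubilized Sf9 membrane reagent and enriched with streptavidin microbeads before FACS. Low and high (top ~1%) gates were set on anti-HA fluorescence for expression and streptavidin fluorescence for reagent binding, and each polyreactivity label reflects the gate of origin.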
With “QVQLVDSGGGLVQAGGSLRLICAASGRTFGTNALGWYRQAPGKEREFVAAIRWSDGSTYYADSVKGRFTISRDNAKNTVYLQMNSLKPEDTAVYYCAKEYYIVDVIHDYALYLYDYWGQGTQVTVSS” the “polyreactivity (PSR sort gate)” value was “low polyreactivity”. For “QVQLVDSGGGLVQAGGSLRLICAASGRTIWYYAMGWYRQAPGKERELLASITRSGGSTYADSVKGRFTISRDNAKNSVYLQMYSLKPEDTAVDYCAATRPRIPVYQNNYGYWGQGTQVTVSS”, the “polyreactivity (PSR sort gate)” value was “high polyreactivity”. In the case of “QVQLVDSGGGLVQAGGSLRLICDASGFIFFAYAMGWYRQAPGKERELVAVITSGGGTNYADSVKGRFTFSRDNAKNTVYLQMTSLKPEDTAVYYCNADYFFASTEFYYWGQGTQVTVSS”, the “polyreactivity (PSR sort gate)” value is reported as “low polyreactivity”. In the case of “QVQLVDSGGGLVQAGGSLRLIFAASGITQPYYAMGWYRQAPGKERELVAGISSRGGSTYYADSVKGRFTISRDNAKNTVYLQMNSLIPEDTAVYYCAAKVASTRLGPAYGYWGQGTQVTLSS”, the “polyreactivity (PSR sort gate)” value is reported as “high polyreactivity”. In the case of “QVQLVDSGGGLVQAGGSLRLRGAASGRIFFYYAMGWYRQAPGKERELLAAITYSVDSTYYADSVKGRFTISRDNAKNTVYLQMNSLKPEDTAVYYCAADDIHYVIHAYYSSGVDYWGQGTQVTVSS”, the “polyreactivity (PSR sort gate)” value is reported as “low polyreactivity”. With “QVQLVDSGGGLVQAGGSLRLSCAACGSTFVLYGMGWYRQAPGKQRELVADITGGGSSTYYADSVKGRFTISRDYAKNTVYLQMNSLKPEDTAVYYCNADYYPFYWIEPATPYLGFDYWGQGTQVTVSS” the “polyreactivity (PSR sort gate)” value was “low polyreactivity”. For “QVQLVDSGGGLVQAGGSLRLSCAASGAIFDIYGMGWYRQAPGKERELVASISGGAGSTNYADSVKGRFTISRDNAKNTVYLQMNSLKPEDTAVYYCAAEVYVPDYFQHKFDVEYEYWGHGTQVTVSS”, the “polyreactivity (PSR sort gate)” value was “low polyreactivity”. With “QVQLVDSGGGLVQAGGSLRLSCAASGFIFAHYAMGWYRPAPGKESELVAAISSRGGSTYYADSVKGRFTISRDNAKNTVYLQMNSLKPEDTAVYYCAKARHRPARGYEYWGQGTQVTVSS” the “polyreactivity (PSR sort gate)” value was “high polyreactivity”. With “QVQLVDSGGGLVQAGGSLRLSCAASGFIFAPYAMGWYRQAPGKERELVAAISSSGGSTYYADSVKGRFTISRDNAKNTVYLQMNSLKPEDTAVYYCAVDYLTLTYEYYYWGQGTQVTVSS” the “polyreactivity (PSR sort gate)” value was “low polyreactivity”. For “QVQLVDSGGGLVQAGGSLRLSCAASGFIFPLYTMGWSRQAPGKERELVAAITGSGGSTYYADSVKGRFTISRDNEKNTVYLQMNSLKPEDSAVYYCAKDYTYGMDWGQGTQVTVSS”, the “polyreactivity (PSR sort gate)” value was “low polyreactivity”. With “QVQLVDSGGGLVQAGGSLRLSCAASGFIFRRNAMGWYRQAPGKERELVAAITGGGGSTYYADSVKGRFTISRDNAKNTVYLQMNSLKPEDTAVYYCNALPARRRWQVDYWGQGTQVTVSS” the “polyreactivity (PSR sort gate)” value was “high polyreactivity”. In the case of “QVQLVDSGGGLVQAGGSLRLSCAASGFIFRRYAMGWYRQAPGKERDLVAVIRSSGGSTYYADSVKGRFTISRDNAKNTVYLQMNSLKPEDTAVYYCAARSILGYRSYGYWGEGTQVTVSS”, the “polyreactivity (PSR sort gate)” value is reported as “high polyreactivity”. For “QVQLVDSGGGLVQAGGSLRLSCAASGFIFRYYAMGWNRQATGKERELVAAISWSTDNTYYADSVKGRFTILRDNAKNTVYLQMNSLKPEDTAVYYCAADEGWYGPKLDYWGQGTQVTVSS”, the “polyreactivity (PSR sort gate)” value was “low polyreactivity”. In the case of “QVQLVDSGGGLVQAGGSLRLSCAASGFTFRYYAMGWYRQAPGKERELVAAISSSGTRTYYADSVKGRFTISRDNAKTTVYLQMNSLKPEDTAVYYCNAVSPTSTVDYWGQGTQVTVSS”, the “polyreactivity (PSR sort gate)” value is reported as “high polyreactivity”. In the case of “QVQLVDSGGGLVQAGGSLRLSCAASGFTFTLNAMGWYRQAPGKERELVAGISSGGSTNYADSVKGRFTISRDNAKNTVYLQMNSLKPEDTAVYYCAADRGYVWRYDYWGEGTQVTVSS”, the “polyreactivity (PSR sort gate)” value is reported as “low polyreactivity”. In the case of “QVQLVDSGGGLVQAGGSLRLSCAASGFTFTQYAMAWYIQAPGKERELVASIRSGGSTKYADSVKGRFTISRDNAKNTVYLQMISLKPEDTAVYYCAKDRYHISFFYQMEFWGQGTQVTVSS”, the “polyreactivity (PSR sort gate)” value is reported as “low polyreactivity”. In the case of “QVQLVDSGGGLVQAGGSLRLSCAASGFTFVPYAMGWYRQAPGKERETNADSVKGRFTISRDNAKNTVYLQMNSLKPEDTAVYYCAAGGYGPYDYWGQGTQVTVSS”, the “polyreactivity (PSR sort gate)” value is reported as “low polyreactivity”.
